Laboratory results published in patent publication US20260250421A1 (BIOCYTOGEN PHARMACEUTICALS BEIJING, published 2026).
Numbering of substitutions follows the chain as printed.

How the values were obtained:
Assay in all cases: SPR Biacore 8K, Ab on Protein A chip
[1] = target: T1, His-tagged cynomolgus monkey PTK7 protein (cynomolgus monkey, UniProt A0A2K5VNI5 39-712)
T1 construct: Bought protein; also called cPTK7-His; ACRO Biosystems Cat# PT7-C52H3; not shown: His tag
T1 sequence: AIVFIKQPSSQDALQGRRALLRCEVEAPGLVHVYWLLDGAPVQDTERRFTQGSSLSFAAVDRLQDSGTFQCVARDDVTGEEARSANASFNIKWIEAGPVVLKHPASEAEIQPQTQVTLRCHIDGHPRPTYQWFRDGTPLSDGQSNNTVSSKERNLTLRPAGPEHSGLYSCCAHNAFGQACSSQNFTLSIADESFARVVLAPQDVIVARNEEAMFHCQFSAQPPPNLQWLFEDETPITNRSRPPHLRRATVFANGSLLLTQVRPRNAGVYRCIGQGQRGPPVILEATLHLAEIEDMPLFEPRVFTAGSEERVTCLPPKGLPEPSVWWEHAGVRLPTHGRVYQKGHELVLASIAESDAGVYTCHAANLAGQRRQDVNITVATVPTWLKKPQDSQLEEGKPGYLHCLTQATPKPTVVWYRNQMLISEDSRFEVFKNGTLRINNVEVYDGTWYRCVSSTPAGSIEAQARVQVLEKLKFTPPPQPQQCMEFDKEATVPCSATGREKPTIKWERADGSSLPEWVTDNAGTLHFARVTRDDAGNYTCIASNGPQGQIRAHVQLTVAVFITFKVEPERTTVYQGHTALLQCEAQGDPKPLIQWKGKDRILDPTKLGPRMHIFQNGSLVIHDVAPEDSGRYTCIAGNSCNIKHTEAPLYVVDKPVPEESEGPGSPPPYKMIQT
Protocol: (§1) The affinity of the anti-PTK7/TROP2 bispecific antibodies to His-tagged human TROP2 protein (hTROP2-His, ACRO Biosystems Inc., Cat #: TR2-H5223), His-tagged […] monkey TROP2 protein (cTROP2-His, ACRO Biosystems Inc., Cat #: Cat: TR2-R52H3), His-tagged dog TROP2 protein (dTROP2-His, ACRO Biosystems Inc., Cat #: TR2-C52H4), hPTK7-His, cPTK7-His and dPTK7-His were measured by surface plasmon resonance (SPR) using Biacore™ (Biacore, INC, Piscataway N.J.) 8K biosensor equipped with pre-immobilized Protein A sensor chips.

[2] = target: T2, His-tagged dog PTK7 protein (dog, UniProt Q13308 31-703 (human entry))
T2 construct: also called dPTK7-His
T2 chain: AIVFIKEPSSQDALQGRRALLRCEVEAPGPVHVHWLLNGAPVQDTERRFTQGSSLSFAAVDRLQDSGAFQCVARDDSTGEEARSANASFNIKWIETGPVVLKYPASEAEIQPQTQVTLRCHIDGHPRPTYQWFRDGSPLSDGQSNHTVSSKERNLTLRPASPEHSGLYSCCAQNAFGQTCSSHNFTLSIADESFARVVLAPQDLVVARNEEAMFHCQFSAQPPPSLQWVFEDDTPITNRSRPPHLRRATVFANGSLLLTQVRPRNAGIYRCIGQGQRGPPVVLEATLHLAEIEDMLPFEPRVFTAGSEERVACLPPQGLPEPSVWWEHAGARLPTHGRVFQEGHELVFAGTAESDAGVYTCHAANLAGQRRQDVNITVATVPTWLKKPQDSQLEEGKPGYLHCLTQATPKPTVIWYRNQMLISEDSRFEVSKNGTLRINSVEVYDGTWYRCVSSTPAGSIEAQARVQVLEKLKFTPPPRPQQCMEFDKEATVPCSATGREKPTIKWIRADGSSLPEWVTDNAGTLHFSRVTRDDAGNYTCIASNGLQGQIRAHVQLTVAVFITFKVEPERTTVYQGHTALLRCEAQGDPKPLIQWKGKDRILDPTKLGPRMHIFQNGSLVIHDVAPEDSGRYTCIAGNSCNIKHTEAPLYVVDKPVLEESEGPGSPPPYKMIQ
Protocol: as §1

[3] = target: T3, His-tagged human TROP2 protein (human, UniProt P09758 27-274)
T3 construct: Bought protein; also called hTROP2-His; ACRO Biosystems Cat# TR2-H5223; not shown: His tag
T3 sequence (looked up): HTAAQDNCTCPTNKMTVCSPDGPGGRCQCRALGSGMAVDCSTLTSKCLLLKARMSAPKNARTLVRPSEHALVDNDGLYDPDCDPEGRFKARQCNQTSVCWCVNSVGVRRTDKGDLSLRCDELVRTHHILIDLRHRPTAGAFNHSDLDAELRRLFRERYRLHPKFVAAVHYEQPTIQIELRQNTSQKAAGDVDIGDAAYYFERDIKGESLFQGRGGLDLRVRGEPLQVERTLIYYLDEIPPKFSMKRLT
Protocol: as §1

[4] = target: T4, His-tagged monkey TROP2 protein (cynomolgus monkey; Rhesus …, UniProt A0A5F8AGB8 27-274)
T4 construct: also called cTROP2-His; ACRO Biosystems Cat# TR2-R52H3
T4 sequence: T3 sequence (looked up) with M36V, S67N, I204V

B1: 3C4-18E9 (bispecific antibody, human IgG1, V domains shown)
VH 1: QVQLEQSRAEVKKPGESLRISCKGSGYSFTSYWISWVRQMPGKGLEWMGRIDPSDSYTNYNPSFQGHVTISADKSISTAYLQWSSLKASDTAMYYCARRDGSYFDFDYWGQGTLVTVSS
VH 2: QLQLQQSGPGLLKPSETLSLTCTVSGGSISSSYYFWGWIRQPPGKGLEWIGAIYYIGNTHYNPSLKSRVTISIDTSKNQFSLNLNSVTAADTAIYYCARYEDTWNWFDPWGQGTLVTVSS
VL: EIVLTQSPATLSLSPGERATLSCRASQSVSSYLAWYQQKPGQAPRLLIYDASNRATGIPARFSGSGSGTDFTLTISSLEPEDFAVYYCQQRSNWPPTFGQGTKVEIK
notes: which arm carries the knob is stated only for 3C4-6F7; also called anti-PTK7/TROP2 bispecific antibody 3C4-18E9
[1]
  Kd: 13.1 nM
  koff: 0.00167 s⁻¹
  kon: 127000 M⁻¹ s⁻¹
[2]
  Kd: 38.9 nM
  koff: 0.00449 s⁻¹
  kon: 115000 M⁻¹ s⁻¹
[3]
  Kd: 3.03 nM
  koff: 0.00107 s⁻¹
  kon: 353000 M⁻¹ s⁻¹
[4]
  Kd: 3.16 nM
  koff: 0.00104 s⁻¹
  kon: 329000 M⁻¹ s⁻¹
